Laboratory results as given in patent US20220064329A1 (Novo Nordisk, published 2022).

Columns and labels:
Assay in all cases: SPR, Biacore T200, 25 C; FVII(a) variant captured on anti-Gla Ab 4F6, mAb0842(OA) injected
[1] = target: T1, FVII(a) variant T185A (human, UniProt P08709 61-466)
T1 construct: hFVII alanine variant in cell culture supernatant
T1 sequence: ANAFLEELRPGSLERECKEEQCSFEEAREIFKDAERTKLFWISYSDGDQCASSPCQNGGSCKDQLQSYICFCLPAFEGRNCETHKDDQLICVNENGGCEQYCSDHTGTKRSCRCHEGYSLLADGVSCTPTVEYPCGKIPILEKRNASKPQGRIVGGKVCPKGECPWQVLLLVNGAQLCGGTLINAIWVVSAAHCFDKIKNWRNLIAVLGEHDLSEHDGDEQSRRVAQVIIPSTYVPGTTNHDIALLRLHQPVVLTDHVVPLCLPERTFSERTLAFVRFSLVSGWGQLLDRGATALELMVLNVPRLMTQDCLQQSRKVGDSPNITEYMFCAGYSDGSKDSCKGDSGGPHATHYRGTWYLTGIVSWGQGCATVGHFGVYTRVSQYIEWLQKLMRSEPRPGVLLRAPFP
Procedure: (§1) The running buffer was prepared by diluting 10-fold the 10×HBS-P buffer (supplied by GE Healthcare) and supplemented with 1 mg/ml BSA and 5 mM CaCl2 to give 10 mM HEPES, 150 mM NaCl, 0.05% v/v Polysorbate 20, pH 7.4, 5 mM CaCl2, 1 mg/ml bovine serum albumin (BSA). […] Regeneration of the chip was achieved using 10 mM HEPES, 150 mM NaCl, 20 mM EDTA, 0.05 v/v Polysorbate 20, pH 7.4. Binding data were analysed according to a 1:1 Kinetic model and steady state analysis using BiaEvaluation 4.1 supplied by the manufacturer (Biacore AB, Uppsala, Sweden). Wherever possible, ka, kd and KD values from 1:1 kinetic fitting model are reported. […] An amino acid residue is considered a hot-spot residue if substitution of that amino acid residue with alanine results in an affinity reduction of ten (10) fold or more relative to the wild type.

[2] = target: T2, FVII(a) variant P251A (human, UniProt P08709 61-466)
T2 construct: hFVII alanine variant in cell culture supernatant
T2 sequence: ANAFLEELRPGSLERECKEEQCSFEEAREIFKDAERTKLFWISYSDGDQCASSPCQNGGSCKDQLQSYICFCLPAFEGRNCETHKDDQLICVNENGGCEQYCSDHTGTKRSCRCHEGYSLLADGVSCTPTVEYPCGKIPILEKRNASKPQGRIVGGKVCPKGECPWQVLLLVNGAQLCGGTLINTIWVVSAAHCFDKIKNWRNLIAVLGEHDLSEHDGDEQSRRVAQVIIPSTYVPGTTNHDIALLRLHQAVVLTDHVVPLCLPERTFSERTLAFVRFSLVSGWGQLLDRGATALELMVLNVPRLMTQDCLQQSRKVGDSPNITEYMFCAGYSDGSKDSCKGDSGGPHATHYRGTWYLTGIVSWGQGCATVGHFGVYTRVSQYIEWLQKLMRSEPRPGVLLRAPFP
Procedure: as §1

[3] = target: T3, FVII(a) variant E265A (human, UniProt P08709 61-466)
T3 construct: hFVII alanine variant in cell culture supernatant
T3 sequence: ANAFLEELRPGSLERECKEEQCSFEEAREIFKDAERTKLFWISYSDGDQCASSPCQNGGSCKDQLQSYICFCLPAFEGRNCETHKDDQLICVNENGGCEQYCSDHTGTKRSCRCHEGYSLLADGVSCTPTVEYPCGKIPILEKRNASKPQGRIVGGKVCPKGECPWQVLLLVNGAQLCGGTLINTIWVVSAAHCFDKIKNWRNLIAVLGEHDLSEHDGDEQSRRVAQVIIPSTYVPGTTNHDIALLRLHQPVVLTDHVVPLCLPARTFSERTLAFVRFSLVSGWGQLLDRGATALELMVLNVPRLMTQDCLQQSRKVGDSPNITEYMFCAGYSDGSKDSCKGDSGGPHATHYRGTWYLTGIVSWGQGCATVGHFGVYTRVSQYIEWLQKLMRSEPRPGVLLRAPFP
Procedure: as §1

[4] = target: T4, FVII(a) variant E116A (human, UniProt P08709 61-466)
T4 construct: hFVII alanine variant in cell culture supernatant
T4 sequence: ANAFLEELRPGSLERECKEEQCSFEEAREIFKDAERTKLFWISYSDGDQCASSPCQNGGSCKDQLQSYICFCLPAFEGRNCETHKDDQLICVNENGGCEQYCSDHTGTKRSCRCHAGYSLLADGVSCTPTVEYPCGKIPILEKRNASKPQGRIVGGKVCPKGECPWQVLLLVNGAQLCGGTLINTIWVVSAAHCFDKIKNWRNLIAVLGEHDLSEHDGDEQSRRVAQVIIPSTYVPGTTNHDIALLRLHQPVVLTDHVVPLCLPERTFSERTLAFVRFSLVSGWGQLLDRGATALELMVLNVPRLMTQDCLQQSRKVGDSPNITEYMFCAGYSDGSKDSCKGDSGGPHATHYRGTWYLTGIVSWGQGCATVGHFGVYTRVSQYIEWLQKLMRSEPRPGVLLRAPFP
Procedure: as §1

[5] = target: T5, FVII(a) variant G117A (human, UniProt P08709 61-466)
T5 construct: hFVII alanine variant in cell culture supernatant
T5 sequence: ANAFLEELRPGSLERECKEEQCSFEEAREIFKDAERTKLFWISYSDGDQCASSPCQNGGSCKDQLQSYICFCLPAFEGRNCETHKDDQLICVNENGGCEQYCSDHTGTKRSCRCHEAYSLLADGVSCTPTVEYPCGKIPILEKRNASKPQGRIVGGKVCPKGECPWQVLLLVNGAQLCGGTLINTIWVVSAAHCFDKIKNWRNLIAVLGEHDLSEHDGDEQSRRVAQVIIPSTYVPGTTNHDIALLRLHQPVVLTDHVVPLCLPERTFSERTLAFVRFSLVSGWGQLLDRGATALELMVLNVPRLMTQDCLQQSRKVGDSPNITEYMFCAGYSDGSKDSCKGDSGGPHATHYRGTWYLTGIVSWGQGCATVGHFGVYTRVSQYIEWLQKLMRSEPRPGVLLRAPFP
Procedure: as §1

- Kd [1]: 1.01 nM
- Kd [2]: 0.85 nM
- Kd [3]: 0.98 nM
- Kd [4]: 0.5 nM
- Kd [5]: 0.31 nM
B1: mAb0842(OA) (antibody, human IgG4 S228P, kappa)
heavy: QVQLQESGPGLVKPSQTLSLTCTVSGYSISSDSAWSWIRQPPGKGLEWIGYIQYSGSTNYNPSLKSRVTISRDTSKNQFSLKLSSVTAADTAVYYCARSVNYYGNSFAVGYWGQGTLVTVSSASTKGPSVFPLAPCSRSTSESTAALGCLVKDYFPEPVTVSWNSGALTSGVHTFPAVLQSSGLYSLSSVVTVPSSSLGTKTYTCNVDHKPSNTKVDKRVESKYGPPCPPCPAPEFLGGPSVFLFPPKPKDTLMISRTPEVTCVVVDVSQEDPEVQFNWYVDGVEVHNAKTKPREEQFNSTYRVVSVLTVLHQDWLNGKEYKCKVSNKGLPSSIEKTISKAKGQPREPQVYTLPPSQEEMTKNQVSLSCAVKGFYPSDIAVEWESNGQPENNYKTTPPVLDSDGSFFLVSRLTVDKSRWQEGNVFSCSVMHEALHNHYTQKSLSLSLGK
light: EIVLTQSPATLSLSPGERATLSCRASQGISDYLHWYQQKPGEAPRLLIKYTSQPATGIPARFSGSGSGTDFTLTISSLEPEDFAVYYCQNGHSFPLTFGQGTKLEIKRTVAAPSVFIFPPSDEQLKSGTASVVCLLNNFYPREAKVQWKVDNALQSGNSQESVTEQDSKDSTYSLSSTLTLSKADYEKHKVYACEVTHQGLSSPVTKSFNRGEC
chain: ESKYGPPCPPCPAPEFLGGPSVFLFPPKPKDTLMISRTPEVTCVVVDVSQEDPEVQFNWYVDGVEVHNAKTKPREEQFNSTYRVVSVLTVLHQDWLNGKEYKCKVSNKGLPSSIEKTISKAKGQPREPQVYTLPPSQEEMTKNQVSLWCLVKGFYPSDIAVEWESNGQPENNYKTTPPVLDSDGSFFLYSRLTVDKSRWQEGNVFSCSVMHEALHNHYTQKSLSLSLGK
notes: also called monovalent humanized 11F2 antibody; one-armed anti-FVII(a) antibody
